This is an account of results in US20250154238A1 (YALE UNIVERSITY, published 2025).

Assay [1] deals with T1, recombinant human epiregulin containing the epidermal growth factor (EGF) domain (R&D Biosciences Cat … (human, UniProt O14944 63-108)). The assay is described as follows: cell-based or functional assay.
The target of assay [2] is T1, recombinant human epiregulin containing …. The assay is described as follows: cell-based or functional assay. This is another data set of the same source.
Assay [3] shares this target. The assay is described as follows: cell-based or functional assay. The source holds these as a separate data set.
Assay [4] has the same target. The assay is described as follows: Octet bio-layer interferometry, recombinant human epiregulin immobilized.

T1 sequence (O14944 63-108 limits assumed): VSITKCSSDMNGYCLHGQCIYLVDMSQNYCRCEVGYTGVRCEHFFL

B1: humanized epiregulin neutralizing antibody 1 (hEreg NAb1) (antibody, V domains shown)
VH: HLQLQESGPGLVKSSETLSLTCSVSGGSISSSGYYWGWIRQPPGKGLEWIGSFYYSGNTYYNPSLKSRVTISADTSKSQYSLKLSSVTAADTAVYYCARHPFNWNDHYHYMDVWGNGTTVTVSS
VL: DIQMTQSPSSLSASVGDSVTITCRASQSISNYLNWYQKKPGKAPKVLIYAASSLQSGVPSRFSGSGSGTDFTLTISSLQPEDFATYYCQQSYITSITFGQGTRLEIK
notes: The clone comes from hybridomas of Alloy mice (fully human variable regions) and represents wells M3, M4 and M5; also called humanized epiregulin antibody; M3
With B1, the “IC50 of inhibition of epiregulin-induced HFF proliferation (rhEreg 100 ng/ml)” value in assay [1] was 0.1 to 0.3 µg/mL. In addition, the “IC50 (nM), calculated from HFF proliferation assays” value in assay [2] was 1.8 nM. In addition, in assay [3], the “IC50 of inhibition of HFF proliferation induced by 100 ng/ml rhEreg (GFP fluorescence, CyQUANT, day 3)” value came to 0.27 µg/mL. The Kd (as a rule, the concentration at which binding is half-saturated) in assay [4] was 38 pM.
